Data as given in PMC4338043 (PLoS ONE, 2015).

B1: Burkholderia thailandensis inosine-5'-monophosphate dehydrogenase (enzyme, Burkholderia thailandensis strain E264, UniProt Q2SWW9 1-486, looked up)
chain: MRLIQKALTFDDVLLVPAFSDVLPRDTSLKTQLTRHISLNMPLVSAAMDTVTEGRLAIAMAQQGGVGIVHKNLTPVEQAREVAKVKRFESGVVRDPITVPPSMKVRDVIALSRQHGISGFPVLEGPKLVGIVTNRDLRFETRLDEPVKSIMTPRERLVTVAEGTPLAEAKALMHSHRLERVLVVNDAFELRGLMTVKDITKQTEHPEACKDEHGKLRVGAAVGVGADNEERVELLVQAGVDVIVVDTAHGHSKGVLERVRWVKQNFPKVEVIGGNIATAAAAKALVEYGADAVKVGIGPGSICTTRIVAGVGVPQISAIANVSDALRGTGVPCIADGGIRFSGDVSKALAAGANAVMMGSMFAGTEEAPGDVFLYQGRQYKSYRGMGSVGAMKDGAADRYFQDNSANIDKLVPEGIEGRVAYKGSVNAIIFQLIGGVRASMGYCGCKTIAEMHEKAEFVEITAAGMRESHVHDVQITKEAPNYHVD
notes: also called IMPDHbt; class II IMPDH
B2: Neisseria meningitidis inosine-5'-monophosphate dehydrogenase (enzyme, Neisseria meningitidis strain FAM18, UniProt Q9JZB5 1-487, looked up)
chain: MRIVEKAYTFDDVLLVPAHSTVLPRDVKLQTKLTREITLNLPLLSAAMDTVTEARLAISMAQEGGIGIIHKNMPPEMQARAVSKVKRHESGVVKDPVTVAPTTLIREVLEMRAQRKRKMSGLPVVENGKVVGIVTNRDLRFENRVDLPVSAIMTPRERLVTVPEGTSIDEARELMHTHKVERVLVLNEKDELKGLITVKDILKTTEFPNANKDSEGRLRVGAAVGTGGDTEERVKALVEAGVDVIVVDTAHGHSQGVIDRVRWVKETYPHIQVIGGNIATAKAALDLVAAGADAVKVGIGPGSICTTRIVAGVGVPQLTAIHNVAEALKGTGVPLIADGGIRFSGDIAKALAAGAYSVMLGGMFAGTEEAPGEIELYQGRSYKSYRGMGSLGAMSQGSADRYFQDKTDSTDKYVPEGIEGRVPYKGPIVNIIHQLTGGLRSSMGYLGCANIAEMHEKAEFVEITSAGMSESHVHDVQITKEAPNYHR
notes: also called IMPDHnm; class I IMPDH
B3: Legionella pneumophila subsp. pneumophila inosine-5'-monophosphate dehydrogenase (enzyme)
chain: MPLSIVQQSLTFDDVLLVPAHSTILPKDVSLKTKLTRAIHLNMPLISAAMDTVTEARLAIALAQEGGLGIIHKNMSIADQAEEVRRVKKFESGMVKDPISVTPDLTVKELLAVMTKYNFSGVPVVDGKHLVGIVTSRDIRFETNMNLTVAQVMTPKGRLVTVKEGASREEVRSLLHKHRIEKLLVVNENFELRGLITVKDIQKAKDNPYACKDSFEQLRVGAAVGVGEGTDERVAALVESGVDVIVVDTAHGHSQGVLNRVKWIKKNYPDVQVIGGNIATAAAARDLYEAGADAVKVGIGPGSICTTRIVTGVGIPQISAIANVAQELKGIIPVIADGGIRFSGDVCKALAAGADTVMLGSMFAGTEESPGEIELYQGRTYKNYRGMGSIGAMSLAQGSSDRYFQDASLGTEKLVPEGIEGRVPYKGPVQTIIHQLLGGLRSCMGYTGCATIEELHSKTEFVQVTNAGMRESHVHDVSITKQAPNYQVDN
notes: also called IMPDHlpp; class I IMPDH
B4: Staphylococcus aureus inosine-5'-monophosphate dehydrogenase (enzyme, Staphylococcus aureus strain N315, UniProt P99106 1-488, looked up)
chain: MWESKFAKESLTFDDVLLIPAQSDILPKDVDLSVQLSDKVKLNIPVISAGMDTVTESKMAIAMARQGGLGVIHKNMGVEEQADEVQKVKRSENGVISNPFFLTPEESVYEAEALMGKYRISGVPIVDNKEDRNLVGILTNRDLRFIEDFSIKIVDVMTQENLITAPVNTTLEEAEKILQKHKIEKLPLVKDGRLEGLITIKDIEKVIEFPNAAKDEHGRLLVAAAIGISKDTDIRAQKLVEAGVDVLVIDTAHGHSKGVIDQVKHIKKTYPEITLVAGNVATAEATKDLFEAGADIVKVGIGPGSICTTRVVAGVGVPQITAIYDCATEARKHGKAIIADGGIKFSGDIIKALAAGGHAVMLGSLLAGTEESPGATEIFQGRQYKVYRGMGSLGAMEKGSNDRYFQEDKAPKKFVPEGIEGRTAYKGALQDTIYQLMGGVRAGMGYTGSHDLRELREEAQFTRMGPAGLAESHPHNIQITKESPNYSF
notes: also called IMPDHsa; class II IMPDH
B5: Pseudomonas aeruginosa inosine-5'-monophosphate dehydrogenase (enzyme, UniProt Q9HXM5 1-489, looked up)
chain: MLRISQEALTFDDVLLIPGYSEVLPKDVSLKTRLTRGIELNIPLVSAAMDTVTEARLAIAMAQEGGIGIIHKNMGIEQQAAEVRKVKKHETAIVRDPVTVTPSTKIIELLQMAREYGFSGFPVVEQGELVGIVTGRDLRVKPNAGDTVAAIMTPKDKLVTAREGTPLEEMKAKLYENRIEKMLVVDENFYLRGLVTFRDIEKAKTYPLASKDEQGRLRVGAAVGTGADTGERVAALVAAGVDVVVVDTAHGHSKGVIERVRWVKQTFPDVQVIGGNIATAEAAKALAEAGADAVKVGIGPGSICTTRIVAGVGVPQISAIANVAAALEGTGVPLIADGGIRFSGDLAKAMVAGAYCVMMGSMFAGTEEAPGEIELFQGRSYKSYRGMGSLGAMSGSQGSSDRYFQDASAGAEKLVPEGIEGRVPYKGALSAIVHQLMGGLRAAMGYTGSADIQQMRTQPQFVRITGAGMAESHVHDVQITKEAPNYRVG
notes: also called IMPDHpa; class I IMPDH

Biological target: the molecule itself
Test: AUC

Protein | stoichiometry N
B1 | 4
B2 | 8
B3 | 8
B4 | 4

Biological target: the molecule itself
Test: AUC
Remark: another data set of the same source

Protein | stoichiometry N
B1 | 8
B5 | 8
B4 | 8

Biological target: the molecule itself
Test: SEC

Protein | stoichiometry N
B1 | ~4
B5 | ~8
B2 | ~8
B3 | ~8
B4 | ~4
